Reference: patent publication US20220054646A1 (Bicycle, published 2022)
*1 amine or outer side, *2 acyl side, *3 side chain or, on linkers, in order; H or OH if unused. Bridges are numbered along the chain shown (N, C = ends). Where no end group is shown, it is not given here. TBMB = c1c(C[*:1])cc(C[*:3])cc1C[*:2]

B1: 21-31-04-T01-N007 (peptide)
peptide: EVCWDCFMMEDGTCAXXXXXXK
modifications: not fully specified; N-terminal acetyl (Ac); D-residue at the N-terminus (printed (D-E) / (D-Gln)); Sar6 = six sarcosine residues; C-terminal D-Lys; Ci, Cii and Ciii cyclised with TBMB (tri-substituted 1,3,5-trismethylbenzene scaffold)
notes: Bicyclic peptide on TBMB scaffold

Columns and labels:
[1] = target: T1, Prostate-specific membrane antigen (PSMA) (human, UniProt Q04609 44-750, limits assumed); assay: cell-based or functional assay
[2] = target: T1, Prostate-specific membrane antigen …; assay: fluorescence polarization assay, FP(h), PSMA
Method: PSMA binding was measured using the fluorescence polarization assay methodology described in Shen et al (2013) PLOS ONE 8(7), e68339 and PSMA enzyme inhibition was measured using the methodology described in WO 2009/070302.

T1 sequence (Q04609 44-750 limits assumed): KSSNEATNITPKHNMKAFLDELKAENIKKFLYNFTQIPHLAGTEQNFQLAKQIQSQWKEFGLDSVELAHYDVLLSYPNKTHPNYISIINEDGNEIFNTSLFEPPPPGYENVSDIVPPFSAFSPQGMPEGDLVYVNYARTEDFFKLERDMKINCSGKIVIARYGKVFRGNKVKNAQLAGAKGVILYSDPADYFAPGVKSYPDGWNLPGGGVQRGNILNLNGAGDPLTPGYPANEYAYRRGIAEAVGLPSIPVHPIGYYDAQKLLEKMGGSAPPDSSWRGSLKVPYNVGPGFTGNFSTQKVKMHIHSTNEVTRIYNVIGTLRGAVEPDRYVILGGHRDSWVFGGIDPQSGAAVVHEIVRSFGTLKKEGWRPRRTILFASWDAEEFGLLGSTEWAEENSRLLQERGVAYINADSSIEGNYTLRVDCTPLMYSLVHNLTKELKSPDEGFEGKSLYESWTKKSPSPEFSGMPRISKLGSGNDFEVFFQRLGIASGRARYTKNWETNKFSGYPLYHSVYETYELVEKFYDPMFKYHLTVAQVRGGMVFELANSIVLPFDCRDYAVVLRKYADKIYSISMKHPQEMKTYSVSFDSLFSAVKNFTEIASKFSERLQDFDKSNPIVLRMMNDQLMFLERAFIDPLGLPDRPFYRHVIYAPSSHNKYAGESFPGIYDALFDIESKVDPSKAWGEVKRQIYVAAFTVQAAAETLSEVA

Row | Binder | Enzyme inhibition IC50 [1] | Ki [2]
1 | ACMVCHMMEDGTCA (linker 2-5-13 via TBMB (inferred), Bicyclic peptide on TBMB scaffold) [21-31-N002] | 695 nM | 40 nM
2 | B1 |  | 30 nM
3 | FCSECYMMEDGTCA (linker 2-5-13 via TBMB (inferred), Bicyclic peptide on TBMB scaffold) [21-31-11-T01-N001] |  | 6 nM
4 | CIECYIMEDGTCA (linker 1-4-12 via TBMB (inferred), Bicyclic peptide on TBMB scaffold) [21-31-01-N001] |  | 70 nM
